Changes are numbered by the printed parent chain.

Assay [1] has as its target T1, Zika virus envelope protein, strain ILM (Brazil Paraiba 2015) (Zika virus strain ILM (Brazil Paraiba …)).
T1 construct: also called Zika strain ILM; Zika virus EP

Assay [2] has as its target T2, Zika virus envelope protein, strain MR766-NIID (Uganda 1947) (Zika virus strain MR766-NIID (Uganda …, UniProt Q32ZE1 291-790)).
The target in assay [3] is T2, Zika virus envelope protein, strain …. The source holds these as a separate data set.
The target of assay [4] is T1, Zika virus envelope protein, strain ILM …. The assay is described as follows: cell-based or functional assay.
For assay [5], the target named is Zika virus envelope protein, strain H/PF/2013 (French Polynesia 2013) (Zika virus strain H/PF/2013 (French …, UniProt A0A024B7W1 291-794)). The assay is described as follows: cell-based or functional assay.

B1: fusion loop targeting pan-flavivirus antibody 4G2 (antibody, V domains shown)
VH: EVQLQQSGPELVKPGTSVKISCKTSGYTFTEYTIHWVKQSHGKSLAWIGGIDPNSGGTNYSPNFKGKATLTVDKSSSTAYMDLRSLSSEDSAVYFCARIYHYDGYFDVWGAGTAVTVSS
VL: DIKMTQSPSSMYASLGERVTITCKASQDINSYLTWFQQKPGKSPKTLIYRANRLIDGVPSRFSGSGSGQDYSLTISSLDYEDMGIYYCLQYDEFPPTFGGGTKLEIKR
In the case of B1, the Kd – broadly, a measure of binding affinity in units of concentration – in assay [1] stood at 6.41 µg/mL.

B2: mAb 7 (antibody, V domains shown)
VH: EVQLLESGGGLVQPGGSLRLSCAASGFSFSTYSMHWVRQAPGKGLEWVSAISGEGDSAYYADSVKGRFEISRDNSKNTLYLQMNKVRAEDTAVYYCVGGYSNFYYYYTMDAWGQGTMVTVSS
VL: DIVMTQSPASLSLSPGERATLSCRATQSIVTFLAWYQQKPGQAPRLLIYDASTNASGIPARFSGSRSGTDFTLTITRLEPEDFAVYYCQQRYNWPPYSFGQGTKLEIK
notes: also called VH.2 / VL.4
Turning to B2, the EC50 (read off the curve) (as a rule, the concentration that produces a half-maximal response) in assay [2] was around 0.03 µg/mL. The Kd in assay [1] amounted to 5.21 µg/mL; in assay [3], 0.0265 µg/mL.

B3: mAb 8 (antibody, V domains shown)
VH: B2 VH with E69T
VL: B2 VL with V30S, N54R
notes: also called VH.1 / VL.2
Consider B3, for which, in assay [2], the “EC50 (read off the curve)” value is around 0.03 µg/mL. Further, the PRNT50 in assay [4] came out at 5.12 µg/mL; in assay [5], 5.09 µg/mL. In assay [5], the “ADE, viral titers at peak enhancement in THP1.2S cells” value was at least 3 fold. Moreover, binding in assay [1] was put at a Kd of 19.3 µg/mL.

B4: mAb 3 (antibody, V domains shown)
VH: EVQLVESGGGLVQPGGSLRLSCSASGFTFSTYSMHWVRQAPGKGLEYVSAITGEGDSAFYADSVKGRFTISRDNSKNTLYFEMNSLRPEDTAVYYCVGGYSNFYYYYTMDVWGQGTTVTVSS
VL: EIVLTQSPATLSLSPGERATLSCRASQSISTFLAWYQHKPGQAPRLLIYDASTRATGVPARFSGSRSGTDFTLTISTLEPEDFAVYYCQQRYNWPPYTFGQGTKVEIK
notes: also called VH.4 / VL.3
Regarding B4, the 50% effective concentration (EC50 (read off the curve)) in assay [2] is around 0.8 µg/mL. The molecule also showed a dissociation constant Kd in assay [3] of 0.0248 µg/mL.

B5: mAb 6 (antibody, V domains shown)
VH: B4 VH with T28S, V111A, T117S
VL: B4 VL with T10S, S26T, T56S, T77S, T98S
notes: also called VH.3 / VL.1
With B5, the half-maximal effective concentration (EC50 (read off the curve)) in assay [2] is around 0.03 µg/mL. For the same molecule, the PRNT50 in assay [4] was 0.0597 µg/mL. Moreover, in assay [1], the Kd is 3.85 µg/mL.

For the origin of these results see patent publication US20190315838A1 (MIT, published 2019).
